Measured values: publication PMC6981274, “Structure and mechanism of a Type III CRISPR defence DNA nuclease activated by cyclic oligoadenylate” (Nature Communications, 2020)

Assays:
Can1 SeMet = biological target: T1, Can1 SeMet (UniProt Q53W14 =ME+3-636+=LE, internal_change); assay: X-ray crystallography (1.83 A); EMSA: 100 nM 32P-cA4, 20 mM MES pH 6.5, 100 mM NaCl, 1 mM EDTA, 5 mM MnCl2, 2 uM BSA, 10 min at room temperature; 15% native acrylamide, 1x TBE; settings: protein: recombinant; tags: N-terminal His tag removed by TEV; C-terminal Leu-Glu added by cloning; cyclic single strand of 4 nt
T1 sequence: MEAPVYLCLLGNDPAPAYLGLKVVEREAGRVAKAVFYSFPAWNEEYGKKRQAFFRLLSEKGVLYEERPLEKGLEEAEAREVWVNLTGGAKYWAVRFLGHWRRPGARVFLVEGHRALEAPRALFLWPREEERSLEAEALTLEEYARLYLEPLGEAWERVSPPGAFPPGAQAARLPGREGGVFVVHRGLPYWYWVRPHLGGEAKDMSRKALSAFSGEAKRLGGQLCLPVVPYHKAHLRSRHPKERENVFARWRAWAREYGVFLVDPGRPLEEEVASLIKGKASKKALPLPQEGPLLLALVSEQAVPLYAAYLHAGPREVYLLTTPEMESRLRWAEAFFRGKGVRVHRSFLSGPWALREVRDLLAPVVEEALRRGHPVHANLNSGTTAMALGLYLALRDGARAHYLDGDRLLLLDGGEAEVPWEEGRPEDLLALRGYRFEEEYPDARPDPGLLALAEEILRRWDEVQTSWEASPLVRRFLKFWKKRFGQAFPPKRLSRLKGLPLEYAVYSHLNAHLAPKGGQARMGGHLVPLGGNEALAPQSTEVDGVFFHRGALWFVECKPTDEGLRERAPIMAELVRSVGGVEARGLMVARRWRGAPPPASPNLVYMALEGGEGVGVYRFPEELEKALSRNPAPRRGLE

Can1 wild type = biological target: T2, Can1 wild type (UniProt Q53W14 =ME+3-636+=LE, internal_change); assay: SAXS; EMSA: 100 nM 32P-cA4, 20 mM MES pH 6.5, 100 mM NaCl, 1 mM EDTA, 5 mM MnCl2, 2 uM BSA, 10 min at room temperature; 15% native acrylamide, 1x TBE; settings: protein: recombinant; tags: N-terminal His tag removed by TEV; C-terminal Leu-Glu added by cloning; cyclic single strand of 4 nt
T2 sequence: T1 sequence

B1: cA4 (cyclic tetra-adenylate), unlabelled (structured_RNA)
RNA: AAAA
modifications: cyclic oligoribonucleotide, no free ends
binding result (Can1 SeMet): binds
binding result (Can1 wild type): binds
